Measured values taken from FireProtDB (doi:10.1016/j.bpj.2013.08.038).
Values joined by “and” are separate entries in the source; they are usually repeats but may differ in a detail not shown here. Identical values can stand only once.

Conditions: Pseudomonas aeruginosa (strain ATCC 15692 / DSM 22644 / CIP 104116 / JCM 14847 / LMG 12228 / 1C / PRS 101 / PAO1), pH 7, CD, transition: 2, reversible: yes, whole UniProt chain shown; for denaturant m value / unfolding free energy: 25 °C, GdnHCl; for Tm / unfolding enthalpy (calorimetric): Thermal

B1: Azurin wild type, P00282 (protein)
chain: MLRKLAAVSLLSLLSAPLLAAECSVDIQGNDQMQFNTNAITVDKSCKQFTVNLSHPGNLPKNVMGHNWVLSTAADMQGVVTDGMASGLDKDYLKPDDSRVIAHTKLIGSGEKDSVTFDVSKLKEGEQYMFFCTFPGHSALMKGTLTLK
denaturant m value (Dextran 20 50 mg/ml): 4.99 kcal/mol/M
denaturant m value (Dextran 20 100 mg/ml): 4.99 kcal/mol/M and 4.87 kcal/mol/M
unfolding free energy (Dextran 20 100 mg/ml): 8.71 kcal/mol
denaturant m value (Dextran 20 150 mg/ml): 4.68 kcal/mol/M
denaturant m value (Dextran 20 200 mg/ml): 4.66 kcal/mol/M
denaturant m value (Dextran20 200 mg/ml): 4.66 kcal/mol/M
denaturant m value (Dextran 20 250 mg/ml): 4.49 kcal/mol/M
unfolding free energy (Dextran 20 250 mg/ml): 9.29 kcal/mol
denaturant m value (Dextran 20 300 mg/ml): 4.9 kcal/mol/M
unfolding free energy (Dextran 20 300 mg/ml): 9.65 kcal/mol
denaturant m value (Dextran 40 200 mg/ml): 5.11 kcal/mol/M
unfolding free energy (Dextran 40 200 mg/ml): 8.95 kcal/mol
denaturant m value (Dextran 40 250 mg/ml): 4.08 kcal/mol/M
unfolding free energy (Dextran 40 250 mg/ml): 9.5 kcal/mol
denaturant m value (Dextran 40 300 mg/ml): 4.68 kcal/mol/M
unfolding free energy (Dextran 40 300 mg/ml): 9.65 kcal/mol
denaturant m value (Dextran 70 100 mg/ml): 4.9 kcal/mol/M
unfolding free energy (Dextran 70 100 mg/ml): 8.59 kcal/mol
denaturant m value (Dextran 70 200 mg/ml): 4.73 kcal/mol/M
unfolding free energy (Dextran 70 200 mg/ml): 8.86 kcal/mol
denaturant m value (Dextran 70 300 mg/ml): 4.68 kcal/mol/M
unfolding free energy (Dextran 70 300 mg/ml): 9.65 kcal/mol
denaturant m value (Ficoll 70 50 mg/ml): 5.09 kcal/mol/M
denaturant m value (Ficoll 70 100 mg/ml): 4.97 kcal/mol/M
denaturant m value (Ficoll 70 150 mg/ml): 4.46 kcal/mol/M
denaturant m value (Ficoll 70 200 mg/ml): 4.92 kcal/mol/M
denaturant m value (Ficoll 70 250 mg/ml): 4.94 kcal/mol/M
denaturant m value (Ficoll 70 300 mg/ml): 5.16 kcal/mol/M
denaturant m value: 4.92 kcal/mol/M
Tm (Dextran 20 50 mg/ml): 64 °C
unfolding enthalpy (calorimetric) (Dextran 20 50 mg/ml): 112 kcal/mol
Tm (Dextran 20 100 mg/ml): 65 °C
unfolding enthalpy (calorimetric) (Dextran 20 100 mg/ml): 114 kcal/mol
Tm (Dextran 20 150 mg/ml): 65 °C
unfolding enthalpy (calorimetric) (Dextran 20 150 mg/ml): 115 kcal/mol
Tm (Dextran 20 200 mg/ml): 66 °C
unfolding enthalpy (calorimetric) (Dextran 20 200 mg/ml): 120 kcal/mol
Tm (Dextran20 200 mg/ml): 66 °C
Tm (Dextran 20 250 mg/ml): 67 °C
unfolding enthalpy (calorimetric) (Dextran 20 250 mg/ml): 107 kcal/mol
Tm (Dextran 40 200 mg/ml): 66 °C
Tm (Dextran 70 100 mg/ml): 65 °C
Tm (Dextran 70 200 mg/ml): 68 °C
Tm (Ficoll 70 50 mg/ml): 64 °C
unfolding enthalpy (calorimetric) (Ficoll 70 50 mg/ml): 117 kcal/mol
Tm (Ficoll 70 100 mg/ml): 64 °C
unfolding enthalpy (calorimetric) (Ficoll 70 100 mg/ml): 117 kcal/mol
Tm (Ficoll 70 150 mg/ml): 65 °C
unfolding enthalpy (calorimetric) (Ficoll 70 150 mg/ml): 118 kcal/mol
Tm (Ficoll 70 200 mg/ml): 65 °C
unfolding enthalpy (calorimetric) (Ficoll 70 200 mg/ml): 117 kcal/mol
Tm (Ficoll 70 250 mg/ml): 65 °C
unfolding enthalpy (calorimetric) (Ficoll 70 250 mg/ml): 113 kcal/mol
